The values below come from publication doi:10.1101/2022.01.13.476221.

Assay [1] has as its target T1, unphosphorylated human MST2-FL (residues 1-484) (human) (UniProt Q13188).
T1 sequence: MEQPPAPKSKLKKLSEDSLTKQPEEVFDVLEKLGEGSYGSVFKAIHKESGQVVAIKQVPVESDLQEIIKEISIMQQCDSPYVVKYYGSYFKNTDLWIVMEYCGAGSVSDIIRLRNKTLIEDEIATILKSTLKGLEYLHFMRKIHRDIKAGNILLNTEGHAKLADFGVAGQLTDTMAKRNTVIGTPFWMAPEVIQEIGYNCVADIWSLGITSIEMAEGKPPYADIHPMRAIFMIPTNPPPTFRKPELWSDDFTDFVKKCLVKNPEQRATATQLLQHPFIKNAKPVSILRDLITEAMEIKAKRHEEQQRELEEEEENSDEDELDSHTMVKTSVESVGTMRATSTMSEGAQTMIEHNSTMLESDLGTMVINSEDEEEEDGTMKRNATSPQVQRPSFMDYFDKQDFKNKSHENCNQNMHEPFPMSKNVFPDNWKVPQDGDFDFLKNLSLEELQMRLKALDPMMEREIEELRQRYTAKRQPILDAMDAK

In assay [2] the target is T2, unphosphorylated human MST2-K (kinase domain, residues 1-314) (human) (UniProt Q13188).
T2 sequence: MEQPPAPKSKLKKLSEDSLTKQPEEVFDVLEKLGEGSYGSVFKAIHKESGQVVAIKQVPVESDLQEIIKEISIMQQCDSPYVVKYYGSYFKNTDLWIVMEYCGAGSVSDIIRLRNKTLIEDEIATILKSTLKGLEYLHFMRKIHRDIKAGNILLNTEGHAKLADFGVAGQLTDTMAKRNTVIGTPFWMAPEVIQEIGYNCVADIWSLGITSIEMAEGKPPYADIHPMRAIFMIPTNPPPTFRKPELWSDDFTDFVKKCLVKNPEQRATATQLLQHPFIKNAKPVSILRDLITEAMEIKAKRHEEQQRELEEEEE

The target of assay [3] is T3, unphosphorylated human MST2-KL (kinase-linker, residues 1-433) (human) (UniProt Q13188).
T3 sequence: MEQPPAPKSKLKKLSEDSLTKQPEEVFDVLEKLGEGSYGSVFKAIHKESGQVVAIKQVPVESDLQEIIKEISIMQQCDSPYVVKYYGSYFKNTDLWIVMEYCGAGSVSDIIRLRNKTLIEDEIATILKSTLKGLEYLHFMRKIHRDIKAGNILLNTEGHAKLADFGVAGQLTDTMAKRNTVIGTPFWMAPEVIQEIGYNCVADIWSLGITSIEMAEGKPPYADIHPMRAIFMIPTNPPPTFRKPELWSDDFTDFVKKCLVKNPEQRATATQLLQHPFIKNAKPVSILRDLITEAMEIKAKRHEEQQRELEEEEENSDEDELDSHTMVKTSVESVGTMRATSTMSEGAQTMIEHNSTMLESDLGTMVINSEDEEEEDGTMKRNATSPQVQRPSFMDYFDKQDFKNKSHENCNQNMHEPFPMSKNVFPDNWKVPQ

* marks the point of attachment. Biotin = O=C1N[C@H]2[C@H](CS[C@H]2CCCCC(=O)*)N1

B1: biotinylated peptide substrate Biotin-…-NH2 (peptide)
peptide: Biotin-GGGENWYNTLKRKK-NH2
SMILES: CC(C)C[C@H](NC(=O)[C@@H](NC(=O)[C@H](CC(N)=O)NC(=O)[C@H](Cc1ccc(O)cc1)NC(=O)[C@H](Cc1c[nH]c2ccccc12)NC(=O)[C@H](CC(N)=O)NC(=O)[C@H](CCC(=O)O)NC(=O)CNC(=O)CNC(=O)CNC(=O)CCCC[C@@H]1SC[C@@H]2NC(=O)N[C@@H]21)[C@@H](C)O)C(=O)N[C@@H](CCCCN)C(=O)N[C@@H](CCCNC(=N)N)C(=O)N[C@@H](CCCCN)C(=O)N[C@@H](CCCCN)C(N)=O
In the case of B1, the Km^app (peptide), radiometric kinase assay, steady state, 30°C in assay [1] is 139 µM; in assay [2], 625 µM; in assay [3] it was 804 µM.
